Experimental data taken from patent US20260327301 (published 2026).
Residue numbers refer to the chain shown, from its start. Read-outs that look alike come from different tables or passages of the source.

T1: canine IL-31 (dog)
T1 chain: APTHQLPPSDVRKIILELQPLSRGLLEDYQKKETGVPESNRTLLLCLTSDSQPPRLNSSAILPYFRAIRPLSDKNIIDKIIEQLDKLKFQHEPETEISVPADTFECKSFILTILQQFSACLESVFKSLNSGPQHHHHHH

B1: Chimeric Antibody 35C9-1 (antibody, V domains shown)
VH: QSLEESGGRLVTPGTPLTLTCTASGFSLSSYWMSWVRQAPGKGLEWIGDIYATGSTYYANWATGRFTGSKTSTTVDLTITSPTIEDTATYFCARHSSRSGIDFDLWGQGTLVTVSS
VL: AYDMTQTPASVEAAVGGTVTIKCQASQSIGNYLAWYQQKPGQPPKQLIYRASTLASGVPSRFKGSGSGTEFTLTISDLECADGATYYCQQGYDSNNVDNFFGGGTEVVVRR
B2: 35C9-1 rabbit-derived (antibody, V domains shown)
VH: B1 VH
VL: AYDMTQTPASVEAAVGGTVTIKCQASQSIGNYLAWYQQKPGQPPKQLIYRASTLASGVPSRFKGSGSGTEFTLTISDLECADGATYYCQQGYDSNNVDNFFGGGTEVVVR
B3: 19D1-1 rabbit-derived (antibody, V domains shown)
VH: B1 VH with T53S, T56E, N60S, A62V, T63N, T78K
VL: B2 VL with G30S, I75M, G83A, F100L, R110K
B4: Caninized 35C9-1-H1L2 (antibody, V domains shown)
VH: EVQLVESGGDLVKPGGSLRLSCVASGFTFSSYWMSWVRQAPGKGLQWLSDIYATGSTYYANWATGRFTGSRDNAKNTLYLQMNSLTIEDTATYFCARHSSRSGIDFDLWGQGTLVTVSS
VL: EIVMTQSPASLSLSQEEKVTITCQASQSIGNYLAWYQQKPGQAPKQLIYRASTLASGVPSRFSGSGSGTDFTLTISDLECADVAVYYCQQGYDSNNVDNFFGQGTKVEIKR
B5: Caninized 35C9-1-H1L1 (antibody, V domains shown)
VH: B4 VH
VL: B4 VL with S63K, D70E
B6: 19C7-1 rabbit-derived (antibody, V domains shown)
VH: QSVEESGGRLVTPGTPLTLTCTVSGFSLNSYAMGWVRQAPGKGLEYIGIINSSGSTWYATWVKGRFTISKTSTTVDLKMTSVTTEDTATYFCARNRDPFYITDMDLWGQGTLVTVSS
VL: QVLTQTPSSVSAAVGGTVTINCQASQNIYSYLSWYQQKPGQPPKLLIYRASTLASGVPSRFKGSGSGTEFTLTISGVECADAATYYCQQGDSYSDVDNIFGGGTEVVVK
B7: 38E2-1 rabbit-derived (antibody, V domains shown)
VH: QSLEESGGRLVTPGTPLTLTCTASAFSLSGYYMGWVRQAPGKGLEYIGIIGGSSNTFYASWAKGRFTISKTPTTVDLKITSPTTEDTATYFCARHGDTDYISGTYFDLWGQGTLVTVSS
VL: AYHMTQTPASVEVPVGGTVTIKCQASQSISIYLAWYQQKPGQPPKLLIYRASTLASGVPSRFIGSGSGTEFSLTISDLECADAATYYCQQGYEDSNVESLFGGGTEVVVK
B8: Chimeric Antibody 38E2-1 (antibody, V domains shown)
VH: B7 VH
VL: AYHMTQTPASVEVPVGGTVTIKCQASQSISIYLAWYQQKPGQPPKLLIYRASTLASGVPSRFIGSGSGTEFSLTISDLECADAATYYCQQGYEDSNVESLFGGGTEVVVKR
B9: 18E8-1 rabbit-derived (antibody, V domains shown)
VH: B7 VH
VL: B7 VL with R50K
B10: 30A11-1 rabbit-derived (antibody, V domains shown)
VH: QEQLKESGGGLVTPGGTLTLTCTASGFTISGYYMNWVRQAPGKGLEWIGFIYSPSTTYYANWAKGRFTISKTSTTVDLKITSPTTEDTATYFCARGHTTEIRLDLWGQGTLVTVSS
VL: AVLTQTPSPVSAAVGGTVSISCQSSESVYKNNRLSWFQQKPGQPPKLLIFDASTLASGVSSRFKGSGSGTQFTLTISGVQCDDAATYYCLGEFRDSSDNSFGGGTEVVVK
B11: Caninized 38E2-1-H3L3 (antibody, V domains shown)
VH: EVQLVESGGDLVKPGGSLRLSCVASAFSLSGYYMGWVRQAPGKGLEWISIIGGSSNTFYASWAKGRFTISKDNSKNTLYLQMNSLRAEDTAVYFCARHGDTDYISGTYFDLWGQGTLVTVSS
VL: EIVMTQSPASLSLSQGEKVTITCQASQSISIYLAWYQQKPGQPPKLLIYRASTLASGVPSRFSGSGSGTDFSFTITSLQPEDVATYYCQQGYEDSNVESLFGQGTKVEIKR
B12: Caninized 38E2-1-H3L2 (antibody, V domains shown)
VH: B11 VH
VL: B11 VL with T76S
B13: Caninized 47C1-1-H3L3 (antibody, V domains shown)
VH: EVQLVESGGDLVKPGGSLRLSCVASGFSLSTYAMNWVRQAPGKGLEWISIIYSNGDGYYASWAKGRFTISRDNSKNTLYLQMNSLRAEDTAVYYCARGIYSQTTGYFNLWGQGTLVTVSS
VL: MDTRAPTQLLGLLLLWLPGARCEIVMTQTPASLSLSQEGKVTITCQASESIGNTLAWYQQKPGQPPKLLIYGASTLASGVPSRFSGSGSGTDFTFTINSLQPEDVATYYCQSYWSSTTTFRDTFGQGTKVEIKR
B14: Caninized 47C1-1-H2L2 (antibody, V domains shown)
VH: B13 VH with S74A
VL: B13 VL
B15: 30G5-1 rabbit-derived (antibody, V domains shown)
VH: QSLEESGGRLVTPGGSLTLTCTVSGFSLSSYAMIWVRQAPGEGLEWIGTIDPSDNTDYASWAKGRFTISKTSSTTVDLKLTSLTTEDTATYFCASHSYDDYGRDVWNLWGQGTLVTVSS
VL: IVMTQTPSSKSVPVGDTVTINCQASQSVDNNNDLSWYQQKPGQPPKLLIYYTSSLPSGVPSRFKGSGSGTQFTLTISDLECDDAATYYCVGYKSSTTDATAFGGGTEVMVK
B16: Chimeric Antibody 47C1-1 (antibody, V domains shown)
VH: QSVEESGGRLVTPGTPLTLTCTVSGFSLSTYAMNWVRQAPGKGLEWIGIIYSNGDGYYASWAKGRYTISKTSSTTVDLKVTSPTTEDTATYFCARGIYSQTTGYFNLWGQGTLVTVSS
VL: DIVMTQTPASVEAAVGGIVIIKCQASESIGNTLAWYQQKPGQPPKLLIYGASTLASGVSSRFKGSGSGTEVTLTISDLECADAATYYCQSYWSSTTTFRDTFGGGTEVVVKR
B17: 47C1-1 rabbit-derived (antibody, V domains shown)
VH: B16 VH
VL: DIVMTQTPASVEAAVGGIVIIKCQASESIGNTLAWYQQKPGQPPKLLIYGASTLASGVSSRFKGSGSGTEVTLTISDLECADAATYYCQSYWSSTTTFRDTFGGGTEVVVK
B18: 5H4-2 rabbit-derived (antibody, V domains shown)
VH: QSLEESGGDLVKPGASLTLTCTASGFTLSSDYYMCWVRQAPGKGLELIACITTSTVGTWYASWAKGRFTISKTSSTTVTLQMTSLTAADTATYFCGREDGTYADYFNLWGPGTLVTVSS
VL: AYDMTQTPASVEVAVGGTVTIKCQASQSISSWLAWYQQKPGQRPKLLIYRASTLASGVSSRFKGSGSGTQFTLTISGVECADAATYYCQQGYRSSNLDNAFGGGTEVVVK
B19: 44B4-1 rabbit-derived (antibody, V domains shown)
VH: QSLEESGGRLVTPGTPLTLTCTASGFSLSNSYMGWVRQAPGKGLEYIGFIDTGGTTYYASWAKGRFTISRTSTTVDLKMTSPTTEDTATYFCAKGPDDYFFNLWGQGTLVTVSS
VL: DIVMTQTPASVEAAVGGTITINCQASESISSWLAWYQQKPGQPPKLLIYKASTLESGVPSRFKGSGSGTEFTLTISGVQCADAATYYCQVYYFSYNSYNFFGGGTEVVVK

Key:
[1] = target: T1, canine IL-31; assay: ELISA
[2] = target: T1, canine IL-31; assay: BLI
[3] = target: T1, canine IL-31; assay: ELISA
[4] = target: T1, canine IL-31; assay: BLI
[5] = target: T1, canine IL-31; assay: ELISA
[6] = target: T1, canine IL-31; assay: BLI

Binder | EC50 [1] [µg/mL] | Kd [2] [nM] | EC50 [3] [µg/mL] | Kd [4] [nM] | EC50 [5] [µg/mL] | Kd [6] [nM]
B1 | 0.103 | 11.9 | 0.105 | 11.9 | – | –
B2 | – | 12.7 | – | 12.7 | 0.0023 | 12.7
B3 | – | – | – | – | 0.000196 | 43.3
B4 | 0.158 | 389 | – | – | – | –
B5 | 0.19 | 495 | – | – | – | –
B6 | – | – | – | – | 0.00321 | –
B7 | – | 0.815 | – | 0.815 | 0.000915 | 2.55
B8 | 0.0928 | 2.49 | 0.094 | 2.49 | – | –
B9 | – | – | – | – | 0.00195 | –
B10 | – | – | – | – | 0.00282 | –
B11 | 0.0934 | 5.35 | – | – | – | –
B12 | 0.0978 | 8.04 | – | – | – | –
B13 | 0.105 | 15.5 | – | – | – | –
B14 | 0.113 | 15.1 | – | – | – | –
B15 | – | – | – | – | 0.00208 | –
B16 | 0.102 | 8.32 | 0.0985 | 8.32 | – | –
B17 | – | 3.75 | – | 3.75 | 0.00179 | 3.75
B18 | – | – | – | – | 0.000841 | 113
B19 | – | – | – | – | 0.000232 | –
